The subject of data set [1] is C57BL/6 DIO mice. Kind of data set: Chronic treatment of DIO mice with anti-GIPR 2.63.1 in combination with Liraglutide, Dulaglutide or Exendin IV. Type of data set: in vivo, mouse. To be noted: 2.63.1 25 mg/kg once a week, Dulaglutide 1 mg/kg twice a week, Liraglutide 0.3 mg/kg once a day, Exendin IV 0.01 mg/kg once a day, i.p. The protocol:
Male C57BL/6 DIO mice were purchased from Jackson laboratory. Mice were singly housed and continued on high fat diet (60 kcal % fat, Research diet) after arrival. […] All treatments were administrated intraperitoneally. Blood samples were collected from tail vein or cardiac puncture at termination. Serum insulin levels were determined by using mouse high range insulin ELISA (ALPCO Diagnostics). The triglyceride levels were measured using an infinity triglyceride assay kit (Thermo Scientific). Total cholesterol was measured using an infinity total cholesterol kit (Thermo Scientific). Body composition was determined using the minispec whole body composition analyzer (Bruker). For oral glucose tolerance test, mice were fasted for 4 h. Glucose levels were measured and blood samples were taken from the tail vein before the OGTT was initiated. A bolus of glucose (2 g/kg) was given orally by a gavage needle. Glucose levels were measured at 15, 30 and 60 min after glucose administration using a glucose meter (Abbott).

For data set [2] the following is noted: rapid degradation by the DPP-IV enzyme; cited from earlier work.
The test system of data set [3] is high fat diet (HFD)-induced obese C57BL/6 mice. Kind of data set: Mouse pharmacodynamic assay (IPGTT following exogenous [D-Ala2]-GIP) to test anti-murine GIPR antibody 2.63.1. To be noted: antibody i.p. the day before IPGTT, [D-Ala2]-GIP 50 nmol/kg i.p. Type of data set: in vivo. Here is the method:
FIG. 1 provides an overview of the pharmacodynamics assay to test anti-murine GIPR antibodies. Seven week old male high fat diet (HFD)-induced obese C57BL/6 mice were purchased from Jackson Labs. After arrival, mice were continued on high fat diet with Research Diets D12492 (60 kcal % fat) (Research diet) for one to two weeks. Mice were randomized by body weight and were administrated intraperitoneally with testing GIPR antibody or vehicle (10 mM acetate, 150 mM NaCl, pH 5.0) the day before intraperitoneal glucose tolerance test (IPGTT). Mice were fasted for 7 hours and IPGTT was performed immediately following exogenous GIP [D-Ala2]-GIP (50 nmol/kg, Phoenix Pharmaceuticals) given intraperitoneally. Blood samples were taken from tail nick at the times indicated. Glucose was measured using AlphaTrak blood glucose meter (Abbott). Blood insulin level was determined by using Insulin (mouse) ultra-sensitive EIA kit (ALPCO Diagnostics). […] 2.63.1 comprises a light chain with the following sequence: […]

Data set [4] concerns C57BL/6 DIO mice. In words: Chronic treatment of diet induced obese mice with GIPR antibody 2.63.1. To be noted: twice a week i.p. for 6 weeks. Type of data set: in vivo, mouse. The protocol:
FIG. 3 provides an overview of the study used to determine the effects of chronic treatment of diet induced obese (DIO) mice with the 2.63.1 antibody. 18 week old male C57BL/6 DIO mice fed Research Diets D12492 (60 kcal % fat) were randomized into groups. Treatments were given twice a week intraperitoneally for 6 weeks. Blood glucose levels were measured from tail nick using a glucose meter (Abbott) after mice were fasted for 4 hours. Insulin levels were determined using mouse high range insulin ELISA (ALPCO Diagnostics). Triglyceride levels were measured using an Infinity triglyceride assay kit (Thermo Scientific). Total cholesterol was measured using an Infinity total cholesterol kit (Thermo Scientific). Body composition was determined using the minispec whole body composition analyzer (Bruker).
For intraperitoneal glucose tolerance test (IPGTT), mice were fasted for 4 hours. Glucose levels were measured and blood samples were taken from the tail vein before IPGTT was initiated. IPGTT was performed by intraperitoneal injection of glucose (1 g/kg body weight). Glucose levels were measured at 20, 40 and 60 minutes after glucose administration by using a glucose meter (Abbott). FIG. 4.
At termination, liver and epididymal fat was isolated and weighed using a balance. One piece of each tissue was fixed in 10% buffered formalin for 24 hours.

Data set [5] relates to C57BL/6 DIO mice. In words: Chronic treatment of DIO mice with anti-GIPR 2.63.1 in combination with Liraglutide. To be noted: 2.63.1 30 mg/kg twice a week, Liraglutide 0.3 mg/kg once a day, i.p. It counts as in vivo, mouse. The protocol:
FIG. 24 provides an overview of the study used to determine the effects of chronic treatment of diet induced obese (DIO) mice with the mouse anti-mouse GIPR Ab (2.63.1) in combination with the GLP-1R agonist Liraglutide. Male C57BL/6 DIO mice were purchased from Jackson laboratory. Mice were single housed and continued on high fat diet (60 kcal % fat, Research Diets). Mice at 35 weeks old were randomized into groups and received one of the following treatments: A: vehicle (10 mM acetate, 9% sucrose, pH 5.2, and saline); B: 2.63.1 (30 mg/kg, twice a week); C: Liraglutide (0.3 mg/kg, once a day) and D: 2.63.1 (30 mg/kg, twice a week) and Liraglutide (0.3 mg/kg, once a day). All treatments were administrated intraperitoneally.
Blood samples were collected from tail vein or cardiac puncture at termination. Serum insulin levels were determined by using mouse high range insulin ELISA (ALPCO Diagnostics). Serum leptin levels were measured using mouse and rat leptin ELISA kit from BioVendor. The triglyceride levels were measured using an infinity triglyceride assay kit (Thermo Scientific). Total cholesterol was measured using an infinity total cholesterol kit (Thermo Scientific). At termination, liver, epididymal fat and inguinal fat were isolated and weighed using a balance.
Body composition was determined using the minispec whole body composition analyzer (Bruker).
For the oral glucose tolerance test (OGTT), mice were fasted for 4 hours. Glucose levels were measured and blood samples were taken from the tail vein before the OGTT was initiated. A bolus of glucose (2 g/kg) was given orally by a gavage needle. Glucose levels were measured at 15, 30 and 60 min after glucose administration using a glucose meter (Abbott).

The subject of data set [6] is C57BL/6 DIO male mice. Kind of data set: Anti-GIPR 2.63.1 treatment in DIO mice pre-treated with Liraglutide (two-phase study). Type of data set: in vivo, mouse. To be noted: Liraglutide 0.05 or 0.3 mg/kg daily for 2 weeks, then 2.63.1 25 mg/kg weekly added. From the text:
FIG. 41 provides an overview of the study used to determine the effects of chronic treatment of diet induced obese (DIO) mice pre-treated with Liragutide with the mouse anti-mouse GIPR Ab (2.63.1). C57BL/6 DIO male mice (17 week old) fed Research Diets D12492 (60% kcal fat) for 13 weeks were randomized into groups. During phase 1 (pre-treatment phase), animals were intraperitoneally dosed daily for 2 weeks with either 1) saline (0.9% sodium chloride), 2) Liraglutide (BAChem #H-6724-0005) at 0.05 mg/kg, 3) Liraglutide at 0.3 mg/kg, or 4) Liraglutide 0.3 mg/kg in combination with a weekly dose of mouse anti-mouse GIPR Ab (2.63.1) in vehicle (10 mM acetate, 9% sucrose, pH 5.2) at 25 mg/kg;ll other groups (1-3) received a weekly dose of vehicle. During phase 2 (experimental stage) mouse anti-mouse GIPR Ab (2.63.1) treatment was initiated in the animals pre-treated with Liraglutide. Blood glucose levels were measured from retro orbital sinus using a glucose meter (Abbott) after mice were fasted for 4 hours before phase 1, end of phase 1, and at the end of the experiment. Insulin levels were determined using mouse high range insulin ELISA (ALPCO Diagnostics). […] Plasma was analyzed on the Olympus chemistry analyzer for liver enzymes, cholesterol, triglycerides, and NEFA. Plasma was analyzed in mouse metabolism multiplex assay (MMHMAG-44K—EMD Millipore) for mouse hormones.

For the molecule “Dulaglutide: GLP1R agonist; also known LY2189265, Eli Lilly and Company [reference compound]”, in data set [1], the “effect on fat mass loss of the combination GIPR Ab 2.63.1 with GLP-1R agonist (Liraglutide, Dulaglutide or Exendin IV)” value is reported as “synergistic effect” and the “effect on weight loss of the combination GIPR Ab 2.63.1 with GLP-1R agonist (Liraglutide, Dulaglutide or Exendin IV)” value is reported as “synergistic effect”.

Consider “GLP-1: 31-amino acid peptide derived from the proglucagon gene”, for which the half-life entry in data set [2] is “approximately 2 minutes”.

B1: 2.63.1: anti-murine GIPR antibody; light chain SEQ ID NO: 3161, heavy chain SEQ ID NO: 3162 (antibody)
heavy: MGWSYIILFLVATATDVHSQVQLQQPGAELVKPGASVKLSCRASGYTFTSNWMHWVKQRPRQGLEWIGEINPSNGRSNYNEKFKTKATLTVDKSSSTAYMQLSSLTSEDSAVYYCARFYYGTSWFAYWGQGTLVAVSAAKTTPPSVYPLAPGSAAQTNSMVTLGCLVKGYFPEPVTVTWNSGSLSSGVHTFPAVLQSDLYTLSSSVTVPSSTWPSETVTCNVAHPASSTKVDKKIVPRDCGCKPCICTVPEVSSVFIFPPKPKDVLTITLTPKVTCVVVDISKDDPEVQFSWFVDDVEVHTAQTQPREEQFASTFRSVSELPIMHQDWLNGKEFKCRVNSAAFPAPIEKTISKTKGRPKAPQVYTIPPPKEQMAKDKVSLTCMITDFFPEDITVEWQWNGQPAENYKNTQPIMDTDGSYFVYSKLNVQKSNWEAGNTFTCSVLHEGLHNHHTEKSLSHSPGK
light: MKLPVRLLVLMFWIPASSSDVVMTQTPLSLPVSLGDQASISCRSSQSLVHSNGDTYLHWYLQKPGQSPKLLIYKVSNRFSGVPDRFSGSGSGTDFTLKISRVEAADLGVYFCSQSTHVPPFTFGGGTKLEIKRADAAPTVSIFPPSSEQLTSGGASVVCFLNNFYPKDINVKWKIDGSERQNGVLNSWTDQDSKDSTYSMSSTLTLTKDEYERHNSYTCEATHKTSTSPIVKSFNRNEC
Regarding B1, the “GIP induced glucose levels” value in data set [3] (FIG. 2A) is on record as “Antagonized”. Further, the “GIP induced insulin secretion” value in data set [3] (FIG. 2B) was “antagonizes GIP induced insulin secretion”. For the same molecule, the fasting glucose levels entry in data set [4] (4 hours fast, FIG. 7) is reported as “lower fasting glucose levels”. The body weight gain result in data set [4] (FIG. 4) is listed as “Reduced Body Weight Gain”. The fat mass entry in data set [4] (FIG. 5) is on record as “lower fat mass”. Further, the “epididymal white adipose tissue weights” value in data set [4] (FIG. 6) is listed as “lower epididymal white adipose tissue weights”. Moreover, in data set [4] (FIG. 8), the insulin levels result is reported as “lower insulin levels”. In data set [4] (FIG. 10A), the serum total cholesterol result is “lower serum total cholesterol”. Further, the serum triglycerides entry in data set [4] (FIG. 10B) was “Lower”. In data set [4] (FIG. 11), the “hepatocyte microvesicular change and corresponding lipid accumulation” value was “reduction in hepatocyte microvesicular change and corresponding lipid accumulation”. For the same molecule, the liver weight entry in data set [4] (FIG. 12A) is “reduced liver weight”. Besides, in data set [4] (FIG. 12B), the liver triglyceride content result is recorded as “reduced”. In addition, the “inflammation and infiltrating macrophages surrounding adipocytes in epididymal white adipose tissue” value in data set [4] (FIG. 13) is “reduced inflammation and reduced infiltrating macrophages cells surrounding adipocytes”. Further, the “glucose tolerance (IPGTT)” value in data set [4] (glucose 1 g/kg i.p., FIG. 9) was “improved glucose tolerance”. Further, in data set [5], the body weight entry is on record as “prevented weight gain”, the glucose levels result was “lowered glucose” and the insulin levels entry is on record as “lowered”. Moreover, in data set [1], the “effect on fat mass loss of the combination GIPR Ab 2.63.1 with GLP-1R agonist (Liraglutide, Dulaglutide or Exendin IV)” value was “synergistic effect” and the “effect on weight loss of the combination GIPR Ab 2.63.1 with GLP-1R agonist (Liraglutide, Dulaglutide or Exendin IV)” value is “synergistic effect”. For the same molecule, the “weight loss in animals pre-treated with Liraglutide” value in data set [6] is reported as “weight loss effect of anti-GIPR can be observed in animals already receiving GLP-1R agonist therapy”.

These data come from US10294303B2, “Method of treating or ameliorating metabolic disorders using binding proteins for gastric inhibitory peptide receptor (GIPR) in combination with GLP-1 agonists” (AMGEN INC., priority 2015, dated 2019).
